Source: US20250171562A1 (ALK ABELL, published 2025)
Blank lines part the entries; values can stand above or below the binder they belong to.

Key:
[1] = target: T1, IgE-Fc Cε3-4 (human, UniProt P01854-1 209-428, limits assumed); experiment: ELISA, immobilised IgE-Fc Cε3-4
T1 construct: domain: Cε3-Cε4; coated at 2 µg/mL in the ELISA; also called IgE-Fc Cε3-Cε4
Experimental: (§1) SdAb monomers of interest (table 1) and identified in example 2 were amplified from pNT plasmid by PCR and recloned in pET22b plasmid by SLICE cloning reaction. Thereby, a pelB signal sequence and a C-terminal his/HA tag were added to the sdAbs allowing for secretion into periplasmic space and subsequent purification and detection. SdAbs were expressed in E. coli Rosetta (DE3) cells using 2YT media. Expression was induced in early exponential phase with 0.5 mM IPTG and carried overnight at 20° C.-25° C. Purification of sdAbs from supernatant or supernatant+periplasmic extract was performed by IMAC using HisTrap excel column (Cytiva) as first step and by SEC with a Hiload 16-600 Superdex® 75 pg (Cytiva) column as second step. Size and purity of each sdAbs were evaluated on a 15% acrylamide SDS-PAGE. Then, immunoreactivity of sdAbs against immobilized IgE-Fc Cε2-4 and IgE-Fc Cε3-4 was analysed by ELISA. IgE-Fc were coated at 2 μg/mL overnight in a Nunc MaxiSorp plate (ThermoFisher). After blocking sdAbs were added at a 1:10 dilution in TBS and incubated 3h at room temperature. Detection was performed using a mouse anti-HA antibody (ThermoFisher) and an anti-mouse IgG AP conjugated (Sigma Aldrich).

[2] = target: T2, recombinant human IgE (human, UniProt P01854-1 1-428); experiment: IgE-FcεRIα displacement ELISA
T2 construct: made in-house (ALK); preloaded on immobilised FcεRIα in the displacement ELISA
Summary of the method: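 sdAbs at pM–μM were incubated 1 h on preformed complexes of 13 ng/ml recombinant human IgE with avi-tag-biotinylated human FcεRIα captured on streptavidin.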

[3] = target: T3, biotinylated IgE Fc (UniProt P01854-1 104-428, biotinylated); experiment: BLI (Octet), IgE Fc on sensor, 1:1 fit
T3 construct: also called IgE Fc (made in-house ALK, Denmark)
Experimental: The biotinylated IgE Fc (made in-house ALK, Denmark) was immobilised on SAX (High precision streptavidin) sensors (FortéBIO) to max 1 nm. The association (240 s) and dissociation (600 s) were measured for the analytes in a serial dilution (from 10 nM to 0.37 nM). Data were subtracted to blank reference sensors exposed to the same serial analyte dilutions, aligned, and analysed in the Octet Data Analysis HT 11.1 Software (FortéBIO) using a 1:1 fitting model.

[4] = target: T4, IgE-Fc Cε2-4 (human, UniProt P01854-1 104-428, limits assumed); experiment: ELISA, immobilised IgE-Fc
T4 construct: domain: Cε2-Cε4; coated at 2 µg/mL in the ELISA; also called IgE-Fc Cε2-Cε4
Experimental: as §1

[5] = target: T5, biotinylated IgE: FcεRIα complex (UniProt P01854 104-428; P12319 26-205, biotinylated); experiment: yeast display titration, flow cytometry
T5 construct: preformed complex used for yeast display titration and deep mutational scanning; also called IgE-Fc/FcεRIα; IgE-Fc Cε2-Cε4/FcεRIα complex

[6] = target: T1, IgE-Fc Cε3-4; experiment: ELISA, immobilised IgE-Fc
Experimental: as §1

T2 sequence (P01854 other isoform, or with tags, fused parts or gaps): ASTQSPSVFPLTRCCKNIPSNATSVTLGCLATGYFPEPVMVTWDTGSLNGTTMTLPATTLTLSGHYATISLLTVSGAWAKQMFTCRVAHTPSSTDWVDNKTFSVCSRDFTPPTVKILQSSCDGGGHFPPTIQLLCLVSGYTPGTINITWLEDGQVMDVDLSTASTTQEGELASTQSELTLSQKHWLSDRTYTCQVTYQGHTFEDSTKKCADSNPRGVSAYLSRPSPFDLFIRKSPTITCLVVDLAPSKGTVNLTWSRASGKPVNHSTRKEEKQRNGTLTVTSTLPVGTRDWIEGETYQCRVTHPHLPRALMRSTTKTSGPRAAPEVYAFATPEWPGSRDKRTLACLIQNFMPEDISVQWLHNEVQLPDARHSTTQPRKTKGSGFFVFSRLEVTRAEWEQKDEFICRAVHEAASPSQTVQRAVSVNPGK
T3 sequence (P01854 other isoform, or with tags, fused parts or gaps): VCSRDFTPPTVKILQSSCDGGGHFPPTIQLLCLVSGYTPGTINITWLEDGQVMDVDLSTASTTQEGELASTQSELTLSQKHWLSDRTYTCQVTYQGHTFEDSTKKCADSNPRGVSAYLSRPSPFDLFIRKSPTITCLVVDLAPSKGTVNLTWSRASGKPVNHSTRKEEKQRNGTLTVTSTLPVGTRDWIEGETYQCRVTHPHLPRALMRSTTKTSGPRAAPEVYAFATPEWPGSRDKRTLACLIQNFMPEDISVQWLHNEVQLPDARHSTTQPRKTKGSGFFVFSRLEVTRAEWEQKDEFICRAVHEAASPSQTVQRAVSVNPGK
T1 sequence (P01854 other isoform, or with tags, fused parts or gaps limits assumed): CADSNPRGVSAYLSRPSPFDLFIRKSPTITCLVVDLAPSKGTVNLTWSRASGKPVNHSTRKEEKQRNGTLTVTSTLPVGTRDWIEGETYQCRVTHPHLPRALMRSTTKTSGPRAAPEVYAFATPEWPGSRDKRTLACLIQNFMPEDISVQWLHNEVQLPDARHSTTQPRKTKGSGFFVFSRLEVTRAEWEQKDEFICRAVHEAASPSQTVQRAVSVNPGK
T5 sequence (P12319 26-205, chain 2 of 2): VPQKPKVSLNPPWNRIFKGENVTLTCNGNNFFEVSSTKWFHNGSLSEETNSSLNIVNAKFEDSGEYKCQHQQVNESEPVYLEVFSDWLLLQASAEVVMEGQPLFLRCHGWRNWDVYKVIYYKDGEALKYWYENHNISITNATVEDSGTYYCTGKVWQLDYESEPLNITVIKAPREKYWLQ

B2: sdAb D1 (VHH)
VHH: DVQLQESGGGLVQAGGSLRLSCAASGLTFSRCDMGWFRQAPGKEREFVARISANGASTHYADFVKGRFTISRDNAKNTVYLQMNYLKPEDTAVYICAAARVPVTWQLYDYWGQGTQVTVS
binding result [1]: no binding
Max effect [2]: 0%
Kd [3]: 3.2 nM
koff [3]: 0.00045 s⁻¹
kon [3]: 140000 M⁻¹ s⁻¹

B3: sdAb E4 (VHH)
VHH: DVQLQESGGGLVQPGGSLRLSCAASGFRFSNYAMRWYRQAPGKEREFVARISSTGFITRYTASVRDRFTISRDNDKNMMYLQLNKLTPQDTAHYYCNAESTDYWGQGTQVTVS
binding result [1]: no binding
binding result [4]: binds

B4: sdAb A1 (VHH)
VHH: EVQLLESGGGLVQPGGSLRLSCAASGFTFGNYDMAWVRQAPGKRPEWVSSIDTGGDITHYADSVKGRFTISRDNAKNTLYLQMNSLRPEDTAVYWCATDEEYALGPNEFDYYGQGTLVTVSS
notes: also called sdAb 026; IGE026
EC50 [2]: 800 nM
Max effect [2]: > 95%
Kd [3]: 0.19 nM
koff [3]: 0.0002 s⁻¹
kon [3]: 1e+06 M⁻¹ s⁻¹
apparent Kd (pooled screen) [5]: 0.345 nM

B6: sdAb B3 (VHH)
VHH: DVQLQESGGGLVQAGGSLRLSCAASGFIFRLAGMSWVRQAPGKGFEWVSGITMDGSTTNYADSVKGRFTISRDNSKNRLYLQMNSLKPEDTAVYYCARGAKGGYNDPRGQGTQVTVS
binding result [1]: no binding
Max effect [2]: 0%
Kd [3]: 0.28 nM
koff [3]: 0.00025 s⁻¹
kon [3]: 880000 M⁻¹ s⁻¹

B8: sdAb G1 (VHH)
VHH: DVQLQESGGGLVQAGGSLRLSCAASGFIVSDNVMSWYRQAPGKQRDMVATIMLNGDTAHADSVKGRFTISRDHAKNTVYLQMNSLKPEDTAVYYCNARDSMLEPGRGAWGQGTLVTVS
binding result [4]: binds
binding result [6]: binds

Now from value to binder:

binding result [1]: no binding
EC50 [2]: 200 nM
Max effect [2]: 65%
Kd [3]: 65 nM
koff [3]: 0.049 s⁻¹
kon [3]: 760000 M⁻¹ s⁻¹
B1: sdAb B1 (VHH)
VHH: QVQLQESGGGLVQTGGSLRLSCAVHGRTFSNTGMGWFRQAPGNERQFVAIISPSGTSTYYADSVKGRFTISRDPAKNTVYLQMNSLKMDDTAVYYCAASYGSNWSTLRHQRRNEYDAWGQGTQVAVS

binding result [1]: no binding
Max effect [2]: < 20%
Kd [3]: 0.11 nM
koff [3]: 7.8e-05 s⁻¹
kon [3]: 700000 M⁻¹ s⁻¹
B5: sdAb B2 (VHH)
VHH: QVQLVESGGGLVQAGGSLRLSCAVFGSTFSNNVADWYRQAPGKQRELVARISASGATREYGDSVKGRFTISRDDAKNTMYLQMNNLKPEDTAVYRCHKIEWEDLSRKDYWGQGTQVTVS

binding result [1]: no binding
EC50 [2]: 10000 nM
Max effect [2]: 50%
Kd [3]: 81 nM
koff [3]: 0.02 s⁻¹
kon [3]: 240000 M⁻¹ s⁻¹
B7: sdAb D2 (VHH)
VHH: DVQLQESGGGLVEAGGSLRLSCVASGRTFSGWSMGWFRQAPGKEREFVAAISWVGSWIGGTVYSNSVKGRFTISRDNARTTVYLQMNSLKPEDTAVYFCAAANSETPRIFASEYDYWGQGTQVTVS
